Assay results from the supplement of paper PMC11246515.
± gives the standard deviation of the averaged measurements.

Assay: total protein half-life in vivo (active degradation + dilution); higher = more stable protein
[1] = E. coli NCM3722 delta-clpP delta-lon delta-hslV, growth: N-lim chemostat, doubling time 6 h
[2] = E. coli NCM3722 delta-clpP, growth: N-lim chemostat, doubling time 6 h
[3] = E. coli NCM3722 delta-hslV, growth: N-lim chemostat, doubling time 6 h
[4] = E. coli NCM3722 delta-lon, growth: N-lim chemostat, doubling time 6 h
[5] = E. coli NCM3722 delta-smpB, growth: N-lim chemostat, doubling time 6 h
[6] = wild type E. coli NCM3722, growth: C-lim chemostat, doubling time 3 h
[7] = wild type E. coli NCM3722, growth: C-lim chemostat, doubling time 6 h
[8] = wild type E. coli NCM3722, growth: C-lim chemostat, doubling time 12 h
[9] = wild type E. coli NCM3722, growth: N-lim chemostat, doubling time 6 h
[10] = wild type E. coli NCM3722, growth: N-lim chemostat, doubling time 12 h
[11] = wild type E. coli NCM3722, growth: P-lim chemostat, doubling time 6 h
[12] = wild type E. coli NCM3722, growth: P-lim chemostat, doubling time 12 h

Row | Sequence | total protein half-life in vivo [1] | total protein half-life in vivo [2] | total protein half-life in vivo [3] | total protein half-life in vivo [4] | total protein half-life in vivo [5] | total protein half-life in vivo [6] | total protein half-life in vivo [7] | total protein half-life in vivo [8] | total protein half-life in vivo [9] | total protein half-life in vivo [10] | total protein half-life in vivo [11] | total protein half-life in vivo [12]
1 | MNVVILDTGCANLNSVKSAIARHGYEPKVSRDPDVVLLADKLFLPGVGTAQAAMDQVRERELFDLIKACTQPVLGICLGMQLLGRRSEESNGVDLLGIIDEDVPKMTDFGLPLPHMGWNRVYPQAGNRLFQGIEDGAYFYFVHSYAMPVNPWTIAQCNYGEPFTAAVQKDNFYGVQFHPERSGAAGAKLLKNFLEM | 5.66 ± 1.5 h | 4.08 ± 0.64 h | 4.08 ± 0.044 h | 4.11 ± 0.85 h | 4.11 ± 0.27 h | 3.16 ± 0.23 h | 5.31 ± 0.46 h | 10.5 ± 0.7 h | 4.46 ± 0.29 h | 7.8 ± 1.1 h | 5.78 ± 0.17 h | 11.3 ± 0.22 h
2 | MNYQMITTDDALASLCEAVRAFPAIALDTEFVRTRTYYPQLGLIQLFDGEHLALIDPLGITDWSPLKAILRDPSITKFLHAGSEDLEVFLNVFGELPQPLIDTQILAAFCGRPMSWGFASMVEEYSGVTLDKSESRTDWLARPLTERQCEYAAADVWYLLPITAKLMVETEASGWLPAALDECRLMQMRRQEVVAPEDAWRDITNAWQLRTRQLACLQLLADWRLRKARERDLAVNFVVREEHLWSVARYMPGSLGELDSLGLSGSEIRFHGKTLLALVEKAQTLPEDALPQPMLNLMDMPGYRKAFKAIKSLITDVSETHKISAELLASRRQINQLLNWHWKLKPQNNLPELISGWRGELMAEALHNLLQEYPQ | 4.11 ± 0.93 h | 4.41 ± 1.4 h | 3.88 ± 0.32 h | 4.79 ± 1.2 h | 3.65 ± 0.37 h | > 4 h | 5.23 ± 0.24 h | 10 ± 0.67 h | 3.834 ± 0.0071 h | 6.31 ± 1.4 h | 5.82 ± 0.58 h | 11.8 ± 1.5 h
3 | MPANARSHAVLTTESKVTIRGQTTIPAPVREALKLKPGQDSIHYEILPGGQVFMCRLGDEQEDHTMNAFLRFLDADIQNNPQKTRPFNIQQGKKLVAGMDVNIDDEIGDDE | 5.19 ± 0.069 h | 2.83 ± 0.037 h | 3.29 ± 0.22 h | 2.97 ± 0.61 h | 2.88 ± 0.047 h | > 4 h | 3.52 ± 0.75 h | 5.13 ± 1.2 h | 3.11 ± 0.63 h | 5.02 ± 0.3 h | 2.77 ± 0.39 h | 5.24 ± 0.056 h
4 | MPAVIDKALDFIGAMDVSAPTPSSMNESTAKGIFKYLKELGVPASAADITARADQEGWNPGFTEKMVGWAKKMETGERSVIKNPEYFSTYMQEELKALV | 1.25 ± 0.38 h | 0.88 h |  |  | 0.51 h | 0.644 ± 0.18 h | 0.706 h |  | 0.681 ± 0.18 h | 0.727 ± 0.045 h | 0.402 h | 1.25 h
5 | MPDAVQAPYPAYRPEPNMQTITIAPPKRSWFSLLSWAVVLAVLVVSWQGAEMAPLTLIKDGGNMATFAADFFPPDFSQWQDYLTEMAVTLQIAVWGTALAVVLSIPFGLMSAENLVPWWVYQPVRRLMDACRAINEMVFAMLFVVAVGLGPFAGVLACWRCLSTPPACSPSCFPKRWKRLSPARWKAFAPPVPTSSKRSSTACCHR [P0DP69] |  |  |  |  |  |  |  |  |  |  | 0.274 ± 0.32 h | 0.661 ± 0.64 h
6 | MPEATPFQVMIVDDHPLMRRGVRQLLELDPGSEVVAEAGDGASAIDLANRLDIDVILLDLNMKGMSGLDTLNALRRDGVTAQIIILTVSDASSDVFALIDAGADGYLLKDSDPEVLLEAIRAGAKGSKVFSERVNQYLREREMFGAEEDPFSVLTERELDVLHELAQGLSNKQIASVLNISEQTVKVHIRNLLRKLNVRSRVAATILFLQQRGAQ | 5.05 ± 0.31 h | 2.4265 ± 0.00011 h | 2.17 ± 0.36 h | 4.47 ± 1.4 h | 2.02 ± 0.099 h | 2.08 ± 0.15 h | 3.41 ± 0.22 h | 5.71 ± 1 h | 2.3 ± 0.18 h | 2.86 ± 0.24 h | 2.62 ± 0.31 h | 4.65 ± 0.4 h
